Experimental data: the nanobody polyreactivity screen of Harvey et al. (2022)

Experiment: yeast display, Sf9 membrane polyspecificity reagent, FACS + sequencing; frameworks hold sequencing errors
Summary of the method: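 Galactose-induced (36–48 hours) yeast carrying a synthetic nanobody display library were exposed to 10% biotinylated, detergent-solubilized Sf9 membrane reagent at 4 °C for 1 hour. FACS followed streptavidin microbead enrichment, using low and high (top ~1%) gates for expression (anti-HA) and reagent binding (streptavidin). Colony PCR, MiSeq 2 × 250 sequencing and CDR-length filtering followed. Labels for polyreactivity reflect the gate of origin.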

Sequence | polyreactivity (PSR sort gate)
QVQLVESGGGLVQAGGTLRLSCAASGYTFPLYAMGWYRQAPVKERELVADINIGGASTYYADSVKGRFTISRDNATNTVYLQMNSLKPEDTAVYDCAKEYYDGYFPTFDYDYFGQGTQVTVSS | low polyreactivity
QVQLVESGGGLLQAGGSLRLSCAASGLTFSKNAMGWYRQATGKERELVATISYSSSRTNYADSVKGRFTISRDNAMNTVYLQMNFLKPEDTAVYYCAARVYKGWPTHYDYWGQGTQVTVSS | high polyreactivity
QVQLVESGGGLVQAGGSLRLSCAASGFIFLYNAMGWYRQAPGKERELVATITSGGSTNYADSVKGRFTISRDNAKNTVYLQMNSLKPEDTAVYYCAVRRKAYYSYYYHDPYYYWGQGTQVTVSS | low polyreactivity
QVQIVESGGGLVQAGGSLRLSCAASGLTFYQNAMGWYRQAPGKERELVAAITRSGGSTYYADSVKGRFTISRDNAKNTVYLQMNSLKPEDTAVYYCAARGGLSRRYEYWGQGTQVTVSS | high polyreactivity
QVQLVESGGGLVQAGGSLRLSCAASGRTFGLYAMGWYRQAPGKETELVAAISSSGGSTYYADSVKGRFTISRDNAKNTVYLQMNSLKPEDTAVYYCAKYRRVGYLYDYWGQGTQVTVSS | high polyreactivity
QVQLVESGGGLVQAGGSLRLSCAASGSIFSYYAMGWYRQAPGKERELVAAITTGGGTYYADSVKGRFTISRDNAKNTVYLQMNSLKPEDTAVYYCAKDGYPDQDVQVFNDSDYWGQGTQVTVSS | low polyreactivity
QVQLVESGGGLVQAGGSLRLSCAPSGYTFGKYAMGWYRHAPVKERELVATIRSGGSTNYADSVKGRFTISRDNAKNTVYLQMNSLKPEDTAVYYCNKRYRYQYGYDFWGQGTQVTVSS | high polyreactivity
QVQLVESGGGLVQAGGSLRLSCAASGSTFGDYAMGWYRQAPGKERELVAAISSSGGSTYYADSVKGRFTISRDNAKNTVYLQMNSLKPEDTAVYYCNADRFLYYARTYWYFWFGYWGQGTQVTVSS | low polyreactivity
QVQLVESGGGLVQAGGSLRLSCAASGLTFYPYAMGWYRQAPGKESELVAAINWSGTTTYYADSVKGRFTISRDNAKNTVYLQMNSLKPADTAVYYCNADVYYEPTTGYYLWDYDYWGQGTQVTVSS | low polyreactivity
QFQLVESGGGLVQAGGSLRLSCAASGSTFGTYAMGWYRQAPGKERELVAAISSGGSTYYADSVKGRFTISRDNAKNTVYLQMNSLKPEDTAVYYCAAGYYWYVWGFGYWGQGTQVTVSS | low polyreactivity
QVQLVESGGGLVQAGGSLRLSCSASGSIFVGYAIGWYRQAPVKEMELDASISSGDDTYADSVKGRFTISRDNAKNSVYLQMNSLKPEDTAVYYCAKDSISVDCAYDYWVQGTQVTVSS | low polyreactivity
QVQLVESGGGLVQAGGSLRLSCAASGSIFYPYAMGWYRQAPGKERELVAAISWSGTRTYYADSVKGRFTISRDNAKNTVYLQMNSLKPEDTAVYYCAAYLPGYREQVDTNSWGQGTQVTVSS | low polyreactivity
QVQLVESGGGLVQAGGSLRLSCAASGSTRIYAMGWYRQAPGKERELVAAISWTGGRTYYADSVKGRFTISRDNAKNTVYLQMNSLKPEDTAVYYCAAKGSGRDYWGQGTQVTVSS | high polyreactivity
QVQLVETGGGLVQAGGSLRLSCAASGRTFNVNVKGRYRQAPGKERELVAAINRRGNTYYADSVKGRFTISRDNAKNTVYLQMNSLKPEDTAVYYCAADYRRYGSYDYWGQGTQVTVSS | low polyreactivity
QVQLVESGGGLVQAGGSLRLTCAASRIIFRKYAMGWYRQAPGKERELVAAISSSAGSTYYADSVKGRFTISRDNAKNTVYLQMNSLKPEDTAVYYCAADRHYTRYDYWGQGTQVTVSS | high polyreactivity
QVQLVESGGGLVQAGGSLRLSCAASGSTFLRYAMGWARQAPGKERELVARISGGGTTYYADSVKGRFTISRDNAKNTVYLQMNSLKPEDTAVYYCAARAIYWSRYDYWGQGTQVTVSS | high polyreactivity
QVQLVESGGGLVQAGGSLRLTCAASGSTFPRYAMGWYRQAPGKEREFVAVIWSGGSTYYADSVKGRFTISRDNAKNTVYLQMNSLKPEDSAVYYCAAEYHTLSKYSGYATHDYWGQGTQVTVSS | low polyreactivity
QVQLVDSRGGLVQAGGSLRLSCAASGRTLYSNAKGLSRQAPGKERDLVAAISGSGDTTYYADSVKGRFTISRDNAKNTVYLTMKSLKPEDTAVYYCAADHDSYGAGYEYCGQGTQVTVSS | low polyreactivity
QVQLVESGGGLVQAGGSLRLSCAASGFIFSSIAMGWYRPAPGKEREFVAAITSGGITYYADSLKGRFTISRDNAKNTVYLQMNSLKPEDTAVYYCAAVLSYQTPKYYRWRYGYWGQGTQVTVSS | low polyreactivity
QVQLVESGGGLVQAGGSLRLSCAASGRIFYPNVMGWYRQAPGKERELVAAISASGGRTYYADSVKGRFTISRDNAKNTVYLQMNSLKPEDTAVYYCAADTVPSTRSWDTRYWEYEYWGQGTQVTVSS | low polyreactivity
QVQLVESGGGLVQAGGSLRLSCAASGLTFYQNDLGWYRQAPGKERELVAAITLSGDITYYADSVKGRFTISRDNAKNTVFLQMNSLKPEDTAVYYCNADLYVDPWTYFGYDYWGQGTQVTVSS | low polyreactivity
QVQLVESGGGLVQAGGSLRLSCAASGSIFKDNAMGWYRQAPGKERELVAAITSGASTNYADSVKGRFTISRDNAKNTVYLQMNSLKPEDTAVYYCAAVLAGGVYWVVHYDYWGQGTQVTVSS | low polyreactivity

Sequence | polyreactivity (PSR sort gate)
QVQLVESGGGLVQAGGSLRLSCAASGFTLQGYAMGWYRQAPGKERELVAAIRWIGTSTYYADSVKGRFTISRDNAKNTVYLQMNSLKPEDTAVYYCAAVVRRVRPEGSYNRWGHDYWGQGTQVTVSS | high polyreactivity
QVQLVESGGGLVQAGGSLRLSCAASGFIFGYYAMGWYRQAPGKERELVAAISKIGDSTYYADSVKGRFTISRDNAKNTVYLQMNSLKPEDTAVYYCNKVVRNYPRLYGHWGQGTQVTVSS | high polyreactivity
QVQLVESGGGLVQAGGSLRLSCAASGRTLVSNAMGWYRQAPGKERELVARISYRGGSTYYADSVKGRFTISRDNAKNTVYLQMNSLKPEDTAVYYCAAGVRGSGRRMEYWGQGTQVTVSS | high polyreactivity
QVQLEESGGGLVQAGGSRRLSCAASGITFPGYAMGWYRQAPGKERELVAGITYRGGRTYYADSVKGRFTISRDNAKTTVYLQMTSLNTEATAVYYCNADYWSTGGSYSFDYWGQGTQVTVSS | low polyreactivity
QVHLVESGGGLDQAGGSLRLSCAASGSTFSGYAMGWYRQAPGKERELVAAISSTGRTYYADSVKGRFTISRDNAKNTVYLQMNSLIPEDTALYYCAAKRYTVYGHKYEYWGQGTQVTVSS | high polyreactivity
QVQLVESRGGLVQAGGSLRLSCAASGSIFRPYAMGWYRQAPGKERELVAAISSSGGSTYYADSVKGRFTISRDNAKNTVYLQMNSLKPEDTAVYYCAAESRSTWIHSRDYWGQGTQVTVSS | low polyreactivity
QVQLVESVVGLVQAGGSLRLSCAATGSIFRWYAMGWYRQAPGKERELVAAITWSASRTYYADSVKGRFTISRDNGKNTVYLQMNSLKPEDTAVYYCAADHDCPYAGYDSWGQGTQVTVSS | low polyreactivity
QVQLVESGGGLVQGGGSLRLSCAASGSTFSRYAMGWYRPAPGKERELVAAITGTGGRTYYADSVKGRFTISRANAKNTVYLQRNSLKPEDTAVYYCAAQRWTVKYNYWGQGTQVTVSS | high polyreactivity
QVQLVESGGGLVQAGGSLRLSCAASGFTFFRYAMGWYSQAPGKERELVATITRGGSTNYADSVKGRFTISRDNAKNTVYLQMNSLQPVDTAVYYCNKDKKTPTFDYWGQGTQVTVSS | low polyreactivity
QVQLVESGGGLVQAGGSLRLSCAASGSILYSNAMGWYRQAPGKERELVAVITWGGGSTYYADSVKGRFTISRDNAKNTVFLQMNSLKPEDTAVYYCAARARRGLRAYVELDYWGQGTQVTVSS | low polyreactivity
QVQLVESGGGLVQAGGSLRLSCAASGYTFRYYAMGWYRQAPGKDRELVAVISSGGSTKYADSVKGRFTNSRDNAKNTVYLQMNSLKPEDTAVYYCAARYRSLYNYWGQGTQVTVSS | high polyreactivity
QVQLVYSGGGLVQAGGSLRLSCAASGRTFARYAMGWYIQAPWKERELVAAITRSGGSTTYADSVKGLFTISRDNAKNTVYVQLYSLKPVYTAVYFCASSTSLRLDYWGQGTQVTVSS | high polyreactivity
QVQLVESGGGLVQAGRSLRLSCAASGRIFCYYAMGWYRQAPGKERELVAAITRGGSTYYADSVKGRFTISRDNAKNTVYLQMNSLKPEDTAVYYCAATISGLVKYENDYWGQGTQVTVSS | low polyreactivity
QVQLVESGGGLVQAGGSLRLSCAASGSTFPQYAMGWYRQAPGKERELVAAISRSGGSTYYADSVKGRFTISRDNAKNTVYLQMNSLKPEDTAVYYCNVKSGFWFYPTMDYWGQGTQVTVSS | high polyreactivity
QVQLVESGGGLVQAGGSLRLSCSASGITFGTYAMGWYRQAPGKERELVASITYGGTNTYYADSVKGRFTISRDNAKNTVCLQMNSLKPEDTAVYYCNADPAVSRGSIATDDYDYWVQGTQVTVSS | low polyreactivity
QVQLVESGGGLVQAGGSLRLSCAASGSIFYLYAMGWYRQAPGKERELVAAITSIGGSTYADSVKGRFTISRDNAKNTVYLQMNSLKPEDTALYYCNTDEYPLTVQVQYYYWGQGTQVTVSS | low polyreactivity
QVQLVESGGGLVQAGGSLRLSCAASGRIFYTYAMGWYRQAPGKERELVAAITTSGGRTYYADSVKGRFTISRDNAKNTVYLQMNSLKPEDTAVYYCNKLSSDSYNYWGQGTQVTVSS | high polyreactivity
QVQLVESGGGLVQAGGSLRLSCAASGRTFYPYAMGWYRQAPGKEREFVAVINRSVGSPYYADSVNGRFTISRDNAKNTVYLQMNSLKPEDTAVYYCAAREPLSYYVGGDYWGQGTQVTVSS | low polyreactivity
QVQLVESGGGLVQAGGSLRLSCAASGRIFYSNVMGWYRQAPGKERELVAAISGRTGGTYYADSVKGRFTISRDNAKNTVYLQMNSLIPEDTAVYYCAARVIYYYGSGPYDYWGQGTQVTVSS | low polyreactivity
QVQLVESGGGLVQAGGSLRLSCAASGSTFRYYVMGWYRQAPGKERELVAAISRTGGRTYYADSVKGRFTISRDNAKNTVYLQMNSLKPEDTAVYYCAARNVTTKRYYYWGQGTQVTVSS | high polyreactivity
QVQLVESGGGLVQAGGSLRLSCAASGRIFKRYAMGWYRQAPGKERELVASITWSGGSTYYADSVKGRFTISRDNAKNTVYLQMNSLKPEDTAVYYCAARRTATTSRAYYYWGQGTQVTVSS | high polyreactivity
